Substitutions are numbered along the chain they refer to.
Assays:
Assay type in all cases: cell-based
[1] = target: T1, Rat clone 587 GLP-2 receptor (Rattus norvegicus, UniProt Q9Z0W0); experiment: cAMP functional assay in transfected COS-1 cells, rat GLP-2 receptor
T1 construct: one which primed starting 4 bp upstream of the initiation codon and another which primed starting 8 bp downstream of the stop codon; expressed in transfected cells; host or cells: COS-1
T1 sequence (Q9Z0W0 1-550): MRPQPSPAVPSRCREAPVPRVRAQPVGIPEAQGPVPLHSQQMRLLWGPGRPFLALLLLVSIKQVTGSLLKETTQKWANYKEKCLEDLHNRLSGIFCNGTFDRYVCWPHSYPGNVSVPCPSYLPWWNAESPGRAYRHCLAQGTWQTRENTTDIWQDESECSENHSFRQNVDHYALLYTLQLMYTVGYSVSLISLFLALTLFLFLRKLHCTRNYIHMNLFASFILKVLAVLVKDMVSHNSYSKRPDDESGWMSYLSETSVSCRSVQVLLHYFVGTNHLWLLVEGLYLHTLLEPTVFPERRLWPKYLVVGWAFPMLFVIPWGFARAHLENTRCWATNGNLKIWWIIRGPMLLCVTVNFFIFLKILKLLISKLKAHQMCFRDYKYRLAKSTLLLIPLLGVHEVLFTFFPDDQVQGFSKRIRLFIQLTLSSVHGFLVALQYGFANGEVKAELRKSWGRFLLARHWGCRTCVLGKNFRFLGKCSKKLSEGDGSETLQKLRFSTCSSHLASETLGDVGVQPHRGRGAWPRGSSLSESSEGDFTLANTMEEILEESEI
Experimental: (§1) Cos-1 cells were transfected as described in Analytical Biochemistry, 218:460-463(1994) with Rat clone 587 GLP-2 receptor, cloned human GLP-2 receptor (pC3/HuGL2R-2), or cloned residue 85 variant human GLP-2 receptor (pC3.1/HuGL2R-MH4), pcDNA3. Rat GLP-1 (7-36) amide was used as a control peptide. Solutions used were as follows:
(§2) RSC in RPMI 1640 (49 ml RPMI+1 ml FCS+5)0 ulchloroquine, 100 mM); DEAE/RSC Solution: 18.4 ml RSC+1.6 ml DEAE/Dextran (10 mg/ml).
(§3) The assay procedure entailed the following: […]
The functional assay was performed as follows: cAMP content for each extract was determined in duplicate by EIA (Enzyme ImmunoAssay) using the Amersham Biotrak cAMP EIA Kit (Amersham 225).

[2] = target: T2, cloned human GLP-2 receptor (pC3/HuGL2R-2) (Homo sapiens, UniProt O95838); experiment: cAMP functional assay in transfected COS-1 cells, human GLP-2 receptor; conditions: FIG. 8
T2 construct: expressed in transfected cells; host or cells: COS-1
T2 sequence (O95838 1-553): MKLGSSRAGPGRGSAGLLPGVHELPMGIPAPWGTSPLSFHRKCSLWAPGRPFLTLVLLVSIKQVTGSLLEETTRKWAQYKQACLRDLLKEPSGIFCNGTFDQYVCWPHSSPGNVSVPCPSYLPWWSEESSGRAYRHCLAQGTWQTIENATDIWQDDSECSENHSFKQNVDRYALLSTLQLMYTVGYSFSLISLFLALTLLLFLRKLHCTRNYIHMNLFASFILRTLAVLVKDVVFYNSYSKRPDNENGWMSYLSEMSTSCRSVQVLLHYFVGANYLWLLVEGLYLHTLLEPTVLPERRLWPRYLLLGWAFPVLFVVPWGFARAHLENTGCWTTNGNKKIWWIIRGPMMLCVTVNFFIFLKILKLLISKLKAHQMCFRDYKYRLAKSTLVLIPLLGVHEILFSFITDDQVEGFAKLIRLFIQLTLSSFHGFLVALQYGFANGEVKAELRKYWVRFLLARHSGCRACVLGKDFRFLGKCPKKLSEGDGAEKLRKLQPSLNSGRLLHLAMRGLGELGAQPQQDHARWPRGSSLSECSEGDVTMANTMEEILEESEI
Experimental: as §1, §2, §3
(§4) The functional assay was performed as follows: cAMP content for each extract was determined in duplicate by EIA (Enzyme ImmunoAssay) using the Amersham Biotrak cAMP EIA Kit (Amersham 225). […]

[3] = target: T3, cloned residue 85 variant human GLP-2 receptor (Homo sapiens, UniProt O95838, R85E); experiment: cAMP functional assay in transfected COS-1 cells, residue 85 variant human GLP-2 receptor; conditions: hybrid clone pc3.1/HuGL2R/MH6 with 2 bp GA replacement (Glu85 variant)
T3 construct: Myc-His (from vector pcDNA3.1(-)/Myc-His A) (C); expressed in transfected cells; host or cells: COS-1
T3 sequence (O95838 1-553 R85E): T2 sequence (O95838 1-553) with R85E
Experimental: Rat GLP-1 (7-36) amide was used as a control peptide. Solutions used were as follows:
as §2
The assay procedure entailed the following:
a) […] of either rat clone 587 GLP-2 receptor, or cloned human GLP-2 receptor, or cloned residue 85 variant human GLP-2 receptor was added (as plasmid pcDNA3) to a 50 ml tube containing six mls. of RSC and incubated at 37° C. b) Six ml of DEAE/RSC solution was added to each tube and incubated at 37° C. for 2 min. c) 1.5 ml of COS-1 cell suspension (5.5 millions cells) was added to each tube and incubated for 1 hr 45 min at 37° C. d) Following incubation, the sample was spun for 5 minutes at low speed, washed with DMEM/F12+10% FBS twice, and the pellet resuspended in 12.5 ml DMEM/F12+10% FBS media. e) One ml of cell suspension (step d) was added to each well of 6 well plates coated with poly-D-lysine (from Collaborative Biomedical), containing 3 ml of media (0.45 million cells/well). f) Plates were incubated at 37° C. for 3 days.
Media was prepared fresh on day of use. […]
as §4

[4] = tested on: HHT13 clones (human GLP-2R cDNA with frame-shift mutation); experiment: cAMP functional assay in COS cells transfected with HHT13 clones; conditions: COS cells transfected with pHHT13-1, pHHT13-2, pHHT13-3
Experimental: Transfections were carried out with each clone, using the rat GLP-2R, 587 clone as a positive control for cAMP response to GLP-2 peptide. Methods for transfection, cell culture and cAMP assay were identical to those described for the functional assay of rat, 587 clone.

cAMP response to GLP-2 peptide ([1]; COS cells transfected with rat GLP-2R 587 clone (positive control), cAMP EIA): good cAMP response
selectivity of receptor for GLP-2 over GLP-1 (cAMP) ([1]; cloned rat receptor, peptides at 1, 3, 10 and 30 nM, 30 min, FIG. 3): GLP-2 selectivity
cAMP production in response to GLP-2 treatment ([2]; COS cells transfected with pc3/HuGL2R-2): cAMP production
selectivity of receptor for GLP-2 over GLP-1 (cAMP) ([2]; cloned human receptor, peptides at 1, 3, 10 and 30 nM, 30 min): GLP-2 selectivity
cAMP response to GLP-2 treatment [3]: cAMP response
Substance: Glucagon-like peptide-2 [GLP-2]
cAMP response to GLP-2 peptide [4]: none of the HHT13 clones gave any cAMP response
